For one assay, the target named is 细胞表面的GPC3蛋白 (UniProt P51654). Description: cell-based or functional assay.
A further assay has as its target GPC3-his蛋白 (UniProt P51654 25-559). The assay can be described thus: SPR (Biacore), GPC3-his amine-coupled on CM5, antibody as analyte, 1:1 Langmuir fit. A general note: Surface plasmon resonance follows binding to a sensor surface in real time, without labels.

As to HN3-PE24, in the assay with 细胞表面的GPC3蛋白, the 杀伤活性 IC50, Hep3BLG cells, 72 h, luciferase viability stood at 0.109 µg/mL.

B1: HN3 (antibody, V domains shown)
VH: QVQLVQSGGGLVQPGGSLRLSCAASYFDFDSYEMSWVRQAPGKGLEWIGSIYHSGSTYYNPSLKSRVTISRDNSKNTLYLQMNTLRAEDTATYYCARVNMDRFDYWGQGTLVTVSS
The molecule B1 came in with a Kd in the assay with GPC3-his蛋白 of 1.95 nM.

The Kd is the concentration at which binding is half-saturated.

The values are drawn from patent CN114478780A (AGRICULTURAL UNIV IN CHINA, dated 2022).
